Positions of bridges follow the written chain, without caps; N, C: chain ends. No end group written: not given here.
Key:
[1] = biological target: T1, Prostate-specific antigen (PSA or kallikrein-related peptidase-3, KLK3), major form of active PSA (isoform … (human, UniProt P07288 25-261)); assay: SPR; Biacore T100; PSA amine-coupled to a CM5 chip (2000-3900 RU); alpha-chymotrypsin surface as reference, subtracted; peptides 1.2-600 uM flowed in PBS pH 7.4 (6.7 mM PO4, 0.15 M NaCl), 40 ul/min, 25 C, contact 60 s, dissociation 180 s; Steady State Affinity model; conditions: both partners purified
T1 construct: prostate-specific antigen (PSA, kallikrein-related peptidase-3, KLK3), human, 28 kDa serine protease; the major enzymatically active form (isoform PSA-B) isolated from seminal fluid; Amine-coupled to a CM5 chip for SPR

[2] = biological target: T1, Prostate-specific antigen (PSA or …); assay: cell-based or functional assay

T1 sequence (P07288 25-261): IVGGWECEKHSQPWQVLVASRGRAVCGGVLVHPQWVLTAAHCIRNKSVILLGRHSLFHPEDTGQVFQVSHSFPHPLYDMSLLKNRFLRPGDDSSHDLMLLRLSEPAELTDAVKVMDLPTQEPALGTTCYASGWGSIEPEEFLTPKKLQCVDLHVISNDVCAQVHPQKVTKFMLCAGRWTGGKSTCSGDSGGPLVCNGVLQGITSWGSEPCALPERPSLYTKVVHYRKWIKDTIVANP

Row | Kd [1] | [peptide]2V: peptide concentration with two-fold stimulation of PSA activity, chromogenic substrate S-2586 [2] | [peptide]2V: peptide concentration with two-fold stimulation of PSA activity, fluorogenic substrate 4-morpholinecarbonyl-HSSKLQ-AMC [2] | Binder
1 | 56.5 µM | 3.33 µM | 2.94 µM | CVFAHNYDYLVC-NH2 (disulfide 1-12; N-terminus assumed; SMILES CC(C)C[C@@H]1NC(=O)[C@H](Cc2ccc(O)cc2)NC(=O)[C@H](CC(=O)O)NC(=O)[C@H](Cc2ccc(O)cc2)NC(=O)[C@H](CC(N)=O)NC(=O)[C@H](Cc2c[nH]cn2)NC(=O)[C@H](C)NC(=O)[C@H](Cc2ccccc2)NC(=O)[C@H](C(C)C)NC(=O)[C@@H](N)CSSC[C@@H](C(N)=O)NC(=O)[C@H](C(C)C)NC1=O, cyclic; purity over 95% by HPLC; source: synthetic peptide, bought as custom peptide (AnaSpec, NeoMPS, Biomatik or GenScript)) [12-amino acid cyclic peptide B2 with C-terminal amidation (B2-NH2)]
2 |  | 1.55 µM | 1.36 µM | CVAYCIEHHCWTC (disulfide 1-13, 5-10) [13-amino acid double cyclic peptide C4]
3 | 73.6 µM |  |  | CVFAHNYDYLVC-OH (disulfide 1-12; N-terminus assumed; SMILES CC(C)C[C@@H]1NC(=O)[C@H](Cc2ccc(O)cc2)NC(=O)[C@H](CC(=O)O)NC(=O)[C@H](Cc2ccc(O)cc2)NC(=O)[C@H](CC(N)=O)NC(=O)[C@H](Cc2c[nH]cn2)NC(=O)[C@H](C)NC(=O)[C@H](Cc2ccccc2)NC(=O)[C@H](C(C)C)NC(=O)[C@@H](N)CSSC[C@@H](C(=O)O)NC(=O)[C@H](C(C)C)NC1=O, cyclic; purity over 95% by HPLC; source: synthetic peptide, bought as custom peptide (AnaSpec, NeoMPS, Biomatik or GenScript)) [12-amino acid cyclic peptide B2 (without C-terminal amidation)]
